Laboratory results as given in US20240309103A1 (Regeneron, published 2024).

T1: monkey NPR1 extracellular domain expressed with a C-terminal myc-myc-hexahistidine (mfNPR1-MMH) (monkey, UniProt P16066 33-473 (human entry))
T1 construct: also called monomeric monkey NPR1
T1 chain: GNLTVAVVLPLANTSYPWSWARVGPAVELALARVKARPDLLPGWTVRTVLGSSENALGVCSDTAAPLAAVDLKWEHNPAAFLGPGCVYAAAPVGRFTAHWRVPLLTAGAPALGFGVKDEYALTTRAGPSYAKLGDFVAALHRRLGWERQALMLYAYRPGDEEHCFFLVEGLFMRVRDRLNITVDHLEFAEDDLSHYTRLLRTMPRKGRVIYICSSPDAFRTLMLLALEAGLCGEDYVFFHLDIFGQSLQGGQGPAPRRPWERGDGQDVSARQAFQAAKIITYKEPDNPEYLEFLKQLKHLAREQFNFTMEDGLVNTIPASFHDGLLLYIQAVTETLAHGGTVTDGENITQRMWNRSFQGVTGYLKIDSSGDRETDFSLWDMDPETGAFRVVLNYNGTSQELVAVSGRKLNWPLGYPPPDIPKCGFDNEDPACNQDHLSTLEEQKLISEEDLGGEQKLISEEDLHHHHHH

T2: human NPR1 extracellular domain expressed with a C-terminal mouse IgG2a (hNPR1-mFc) (human)
T2 construct: also called hNPR1-Fc; human NPR1 dimer
T2 chain: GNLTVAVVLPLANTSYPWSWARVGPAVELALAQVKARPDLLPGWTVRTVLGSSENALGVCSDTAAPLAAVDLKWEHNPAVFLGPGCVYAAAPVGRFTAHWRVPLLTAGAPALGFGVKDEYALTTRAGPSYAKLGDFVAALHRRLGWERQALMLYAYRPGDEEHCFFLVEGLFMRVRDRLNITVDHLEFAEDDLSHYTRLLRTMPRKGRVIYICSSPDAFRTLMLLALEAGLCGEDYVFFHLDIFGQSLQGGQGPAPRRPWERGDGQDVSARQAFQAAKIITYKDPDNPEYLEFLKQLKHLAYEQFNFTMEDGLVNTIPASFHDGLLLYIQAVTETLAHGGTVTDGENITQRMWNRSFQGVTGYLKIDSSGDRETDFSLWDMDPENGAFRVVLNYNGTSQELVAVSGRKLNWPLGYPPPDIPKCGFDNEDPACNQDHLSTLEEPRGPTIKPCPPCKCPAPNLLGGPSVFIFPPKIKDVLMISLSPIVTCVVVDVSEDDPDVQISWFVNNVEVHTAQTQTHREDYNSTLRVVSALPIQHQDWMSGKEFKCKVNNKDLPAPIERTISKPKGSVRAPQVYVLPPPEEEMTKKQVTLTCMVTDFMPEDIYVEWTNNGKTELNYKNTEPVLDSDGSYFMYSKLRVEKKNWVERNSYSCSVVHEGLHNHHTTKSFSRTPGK

B1: mAb22035 (antibody, V domains shown)
VH: EVQLVESGGGLVQPGRSLRLSCAASGFTFDDYAMHWVRQAPGKGLEWVSGISWNSGTIGYADSVKGRFTMSRDNAKNSLYLQMNSLRPEDTALYYCAKDMGVSLALWGAFDIWGQGTMVTVSS
VL: DIQMTQSPSSLSASVGDKVTITCRASQNIRTYLNWYQQKPGKAPKVLISTASSLQSGVPSRFSGSGSGTDFTLTISSLQPEDFAVFYCQQSFGIPRTFGQGTKVEIK
B2: mAb22033 (antibody, V domains shown)
VH: QVQLVQSGAEVKKPGASVTVSCKASGYTFTDYYMHWVRQAPGQGLEWMGWIKPNSGGTNSAQRFQGRITMTWDTSISTAYMELSRLRSDDTAVYYCSRGGPVMNYYYYYGMDVWGQGTTVTVSS
VL: NIQMTQSPSSLSASVGDRVTITCRASQSIDSYLNWYQQKPGKAPKLLIYVASSLQSGVPSRFSGSGSGKDFTLTISSLQPEDFATYYCQQSYSIPTFGQGTRLEIK

Columns and labels:
[1] = biological target: T3, human NPR1 extracellular domain expressed with a C-terminal myc-myc-hexahistidine (hNPR1-MMH) (human, UniProt P16066 33-473); test: SPR, mAb captured, 25 C
T3 construct: also called hNPR.mmh; monomeric human NPR1
Method in brief: (§1)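 Biacore 4000 SPR with anti-NPR1 mAbs captured on CM5 chip via amine-coupled mouse anti-human Fc mAb or goat anti-human Fcγ polyclonal; NPR1 reagents flowed as analytes.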
Target sequence in this assay (P16066 other isoform, or with tags, fused parts or gaps): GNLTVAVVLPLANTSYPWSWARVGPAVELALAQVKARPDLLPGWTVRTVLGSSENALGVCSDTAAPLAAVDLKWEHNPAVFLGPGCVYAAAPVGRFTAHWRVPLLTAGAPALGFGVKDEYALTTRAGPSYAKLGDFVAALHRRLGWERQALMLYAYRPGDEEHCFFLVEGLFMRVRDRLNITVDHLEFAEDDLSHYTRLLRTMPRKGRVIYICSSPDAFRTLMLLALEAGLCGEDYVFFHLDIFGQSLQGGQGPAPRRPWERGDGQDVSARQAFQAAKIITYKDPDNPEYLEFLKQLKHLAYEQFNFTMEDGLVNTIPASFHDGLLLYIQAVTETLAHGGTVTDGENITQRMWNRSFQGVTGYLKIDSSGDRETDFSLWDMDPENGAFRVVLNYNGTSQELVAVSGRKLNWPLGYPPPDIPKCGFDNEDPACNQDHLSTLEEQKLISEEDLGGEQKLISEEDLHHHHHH

[2] = biological target: T1, monkey NPR1 extracellular domain …; test: SPR, mAb captured, 25 C
Method in brief: as §1

[3] = biological target: T4, mouse NPR1 extracellular domain expressed with a C-terminal myc-myc-hexahistidine (mNPR1-MMH) (mouse, UniProt P18293 29-469); test: SPR, mAb captured, 25 C
Method in brief: as §1

[4] = biological target: T2, human NPR1 extracellular domain …; test: SPR, mAb captured, 25 C
Method in brief: as §1

[5] = biological target: T3, human NPR1 extracellular domain …; test: SPR, mAb captured, 37 C
Method in brief: as §1

[6] = biological target: T1, monkey NPR1 extracellular domain …; test: SPR, mAb captured, 37 C
Method in brief: as §1

[7] = biological target: T4, mouse NPR1 extracellular domain …; test: SPR, mAb captured, 37 C
Method in brief: as §1
Target sequence in this assay (P18293 other isoform, or with tags, fused parts or gaps): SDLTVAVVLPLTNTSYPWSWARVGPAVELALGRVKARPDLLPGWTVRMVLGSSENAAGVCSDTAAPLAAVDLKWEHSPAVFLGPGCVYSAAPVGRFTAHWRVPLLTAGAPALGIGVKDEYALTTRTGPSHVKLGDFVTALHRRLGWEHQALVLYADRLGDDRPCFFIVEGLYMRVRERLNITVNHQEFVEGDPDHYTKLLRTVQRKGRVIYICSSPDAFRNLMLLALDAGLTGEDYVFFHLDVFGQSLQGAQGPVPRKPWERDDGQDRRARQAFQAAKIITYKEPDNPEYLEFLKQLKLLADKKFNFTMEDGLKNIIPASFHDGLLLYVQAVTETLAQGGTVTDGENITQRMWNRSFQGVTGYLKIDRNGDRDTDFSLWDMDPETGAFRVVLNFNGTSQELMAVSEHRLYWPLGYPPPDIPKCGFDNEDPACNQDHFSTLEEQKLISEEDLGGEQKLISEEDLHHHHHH

[8] = biological target: T2, human NPR1 extracellular domain …; test: SPR, mAb captured, 37 C
Method in brief: as §1

Binder	100 nM Ag Bound (RU) [1] [RU]	Kd [1] [nM]	koff [1] [s⁻¹]	kon [1] [M⁻¹ s⁻¹]	t½ [1] [min]	100 nM Ag Bound (RU) [2] [RU]	Kd [2] [nM]	koff [2] [s⁻¹]	kon [2] [M⁻¹ s⁻¹]	t½ [2] [min]	100 nM Ag Bound (RU) [3] [RU]	binding result [3]	100 nM Ag Bound (RU) [4] [RU]	Kd [4] [nM]	koff [4] [s⁻¹]	kon [4] [M⁻¹ s⁻¹]	t½ [4] [min]	100 nM Ag Bound (RU) [5] [RU]	Kd [5] [nM]	koff [5] [s⁻¹]	also measured
B1	210	0.738	0.00015	203000	77.3	245	0.336	0.000143	426000	80.8	0	no binding (tested: 100 nM)	198	0.365	8.2e-05	225000	141	284	1.3	0.000312	kon [5]: 240000 M⁻¹ s⁻¹; t½ [5]: 37.1 min; 100 nM Ag Bound (RU) [6]: 319 RU; Kd [6]: 0.702 nM; koff [6]: 0.000374 s⁻¹; kon [6]: 532000 M⁻¹ s⁻¹; t½ [6]: 30.9 min; 100 nM Ag Bound (RU) [7]: 1 RU; 100 nM Ag Bound (RU) [8]: 257 RU; Kd [8]: 0.2 nM; koff [8]: 0.000127 s⁻¹; kon [8]: 636000 M⁻¹ s⁻¹; t½ [8]: 90.8 min
B2	30	47.5	0.000406	8550	28.4	79	16.2	0.000291	17900	39.6	0	no binding (tested: 100 nM)	56	1.03	6.38e-05	61800	181	52	136	0.000819	kon [5]: 6030 M⁻¹ s⁻¹; t½ [5]: 14.1 min; 100 nM Ag Bound (RU) [6]: 131 RU; Kd [6]: 27.8 nM; koff [6]: 0.000697 s⁻¹; kon [6]: 25100 M⁻¹ s⁻¹; t½ [6]: 16.6 min; 100 nM Ag Bound (RU) [7]: 1 RU; 100 nM Ag Bound (RU) [8]: 75 RU; Kd [8]: 3.56 nM; koff [8]: 0.000131 s⁻¹; kon [8]: 36800 M⁻¹ s⁻¹; t½ [8]: 88.2 min
